{"source": "a protein production outcome set (Wang et al. 2014)", "assay": "label from the status in PepcDB records"}
{"sequence": "MRPTARNLAPLLAVLCAPPALLAGCGHAEPRPRAAAQDRDGLSALWSYYRYTHVQGGRVAALDEGGVTTSEGQGYAMLRAVWMDDRATLDAVWRWTRENLAVREDRLLAWRWLDGKVKDRNAATDADQDVALALVLASRRFGDPRYLEAARPLLADIWAREVIRAGGRWLPTGGNWAPAERYPTLHVAYLAPYAYQVFADVDPERPWAELVESSYQVLRFLMIEKGLALPPERIWVDPRTGELLLARPGGQPDAFGYDAVPVYWRVALDARWFGRRGEAELRARLLRFPAEAFRDEGRLRERYTTSGRPLSELDGLPHLASVQALAQLEDPELARAMRASKLDALFDRALSGEATPYYLHNWLWFGRALEAGLLRRFDEPLAFLSSLDWGAFRDRFPLLPVALAVVLAPLARRLWPARAALVALALGLSIRYLAWRAGSTLNFVEPLGPALSLALLAAEAYALSTVALLVVQVGLRHRARPPEPPLGAGEPHPSVDVMVPIYSEPLDILDKTLAACAALRYPRKTIVVCDDSHREEVARLAAEHGARYLAGPRRHAKAGNLNAALARTDGELVVVFDTDHVPTAAFLERTVPCFRDPRLGVVQTPHHFYNPDVFQRALGAPASVPNEADLFNHAIQGGRDRWGGAFFVGSGAVFRREALASVGGFHLLSITEDIHTSQKLHAGGWRTRFVDEDLAAGLSAEDLASYVVQRRRWMLGCLQIFFRDNPLLQRGLPLRHRLGYLASLWYFFFPLARLVFFATPLAYLLFHLHPLFAELPVLLAYLVPHLVAAPLAASALVPGWPRLLWGGLYEGAVAFPLARATLDLLLPRRLGFKVTPKGVRSERRRFDLRTSAFTLAAAAVGLLAIAKGAAELWAFGIEVEAYAFNLAWAGANLVSVLLALLVAWERPQRREDERIRRRVPVRLEAPGLSLEASTLDLARGGAAVALPPGAALPAEVEVTFDGPEGLRLRARVAYVEPVDGAPRAGLAFQGVGAAEARALVRIAFSADGAHAGAHDGRSRWQAAMAWHLLAGLWRAVRPLRPRRRLGARRRTLRPLRLCGAGRACRALAVDASAGGLGLVAAGARGAIPAPGTALALLAPEGIGWARVVHARRILPGLWRLGLALQAEPVPGAEPHAYLAA", "values": [{"measurement": "protein production", "result": "failed"}]}
{"sequence": "MLDKNKFIQINLVPCHFCYSFLSYASILEAIMKFKNILVVLNPSNEKQYALARAVRLVEEQKNETKVKITALLSVYDLSYEMSALLSSEERSEMHQQVIEKHRHAVQYYLDKYANPEIELQSHIVWNSNEADAINEEVENNNYDLVVKYTKDEEKLTSLIFTPIDWQLLRKCPIPVLMVRDGDWKHPRRILVAVNVSGEQEYQDEFNQELVETGISLAENLNRGNVHLVAAYPSAPINMAIDLPEFNTSGYENGIRGQHLINMKALRQKFGIDEDHTHVREGFPEEVIPEVAKEIEAELVILGTVGRTGLSAALLGNTAEHVISKLSCNLLGIKPSKKDD", "values": [{"measurement": "protein production", "result": "failed"}]}
{"sequence": "MFKTLEVKYMEDRVLDWAVYEKTAREMVAEGLVLLKNDNKALPLKQGETVSVFGRMQNHYYKSGTGSGGMVNVAKVVGILDALNECKDVNVNQKLAETYAAWDKEHPVELGLGWGQEPWSQAEMPVTEELVQEAAGESDSAIVIIARTAGEDKDNTLEKGAFMLTDIETDMLRLVRENFQKMVVLLNVGGLIDMSFLDTISPDACMYVWQGGMVGGYGVVDVLVGDVSPSGKLTDTIAYDIKDYPAYDNFGGEERNFYAEDIYVGYRYFETFAKDKVRYPFGYGLSYTDFKIGVKHASLDFEKGVANICVKVTNTGKRLGKEVVQVYGEMPQGRLGKPSRVLIDFAKTKELVPGLSDELKFEIPLDRMASFDDSGATGHRNCYVLEAGDYTIHVGNSIRNTTECLFFELAETVELQKLQEALAPYEKFDRMKPFCDENGRMLIEYEETPLVTVDMYDRREQELPEEIPVTGDKGITLLDVREGKATMDEFIAQFDDEDLACFVRGEGMGSSLVTAGTASAFAGVSPNLIAHKIPSVCCDDGPSGMRLDSGMKAFSLPNGTLCGCSFNKELNTRLYALLGLEMTANKVEVLLGPGMNIHRHPLNGRNFEYFSEDPYLTGSIATAQLEGLKSSGVSGTIKHFCGNNQEYHRHTMDSVISQRALREVYLKGFEIAVKSGYADSVMTTYGLVNGLYTAGSYDLNTTILRNEWGFTGVVMTDWWASINRRGMEPDANDFATMIQAQNDMYMCCPDGSKNMGGDNVLEALHDGRILRAELQRIAKNVCSFAMDTNAFKRLVGEPVEIEIINRPKQADDFSIDDVEYINVDRDILIDLTEKASTADTNYVIALDVEHPGEYDVSLRGSSTLEKLAQLPCTLFFNGFPVSNFTFNGTDGKDVVIRKEVKFYSRFNVLRLYVKSNGLDLKDIKFSFEKEF", "values": [{"measurement": "protein production", "result": "failed"}]}
{"sequence": "MKVALGGTFEPLHEGHKKLIDVAIKLGGRDITIGVTSDRMARARIRSVLPFAIRAENVKRYVMRKYGFEPEIVKITNPYGKTLDVDFEYLVVSPETYEMALKINQKREELGKRKITIVKVDWMMAEDGKPISSTRIKRGEIDRYGGII", "values": [{"measurement": "protein production", "result": "not failed"}]}
{"sequence": "MNIQIKKRFLANLLLFSLFCLKAETLSEDHQILLSSDAFHRGDFAAAQKGYMNLYKQTNKVVYAKEAAISAASLGDIKTAMHLAMLYQKITNNRNDVSINKILVDGYAQMGQIDKAIELLHKIRKEEKTIATDNVLGTLYLTQKRLDKAFPLLNKFYNQVHDEDSLEKLITIYFLQNRKKEGLDLLQSHIDRYGCSEQLCQKALNTFTQFNELDLAKTTFARLYEKNPIVQNAQFYIGVLILLKEFDKAQKIAELFPFDRRLLLDLYTAQKKFDQASKQASLIYQEKKDPKFLGLEAIYHYESLSANKKKLTKEEMLPIIQKLEQATKERQAWLAKTKDKEDAQDAFFYNFLGYSLIDYDMDIKRGMDFVRKALALDSGSVLYLDSLAWGYYKLGNCLEAKKIFSSIAKESIQAEPELKEHNKIIQECKK", "values": [{"measurement": "protein production", "result": "failed"}]}
{"sequence": "MQHRQLWYRGGLGLALALVVVGYRGSRTVIRAVPRAQLSVDQKMPSTSSVFSASKLTLQDEANNSAPQVSPEAQESSGPDKQSDLTSGSSTSSSGISSGNSSGSTILENAKNNQTSETATTKAAEMVNGTVKMTLDTNGTLHLSGGSFGASLGSATGSWIVKTLTANGYQPTQVSKIVIDGKITATTMTNYSYLFANLPNVTAIDGLANLNLTGVTDISWLFLNCSQLGALDLNSWDVSSVIRMEGTFQNCAKLVTLNVANWNTDSLQYLIDTFNGDSSLTSLPVGKWNTSKVATMMRTFTDCSSLTSLDIANWDTRVVTNMSAIFRGMSKVKSLPIDKWQTGRVVNMQLVFSGDTSLESINVANWDTSRATALDGTFAKLPNIKSLPLDNWNTSNVQTIRSTFYGDTNLTQLPIDNWNVGKVFDFNSTFSGCASLTTAPVANWNTQSATNLGYTFEGMTSLTSLPVDNWQTGTVTNMAGTFSGVSQLKSLPISKWNTKNVQNMAGTFSKMSSVTALPVDNWQTGNVTTMRGIFTKVSQVKNLPVGKWNTAKVVDMGQVFYGNPQLTSLPIENWNTSSATDFSQLFAEDSGLQTLSLGAWNTTKVTNFESVFQNTSLDKLDLTGWNTNSAQTYTNAFSSKLPPKRLLLGPSFNFFKSESWHLPNPSSEAPYIGKWRSLNNKKVYTSADLMTKYDGKTIVGEFEWATGNTITVKYVDAAGKYLAPDTKISGATGDAYHIKPIEIQGYVPDQPDGVQGNFTDKDETITLMYNPGGLMFVSAPQTINFGQNPITGKSENYGASYDTGLVIQDGRSIGSTWSLNATLSASGFTSKQSGRPLAAVLSYKDQQTGGGSILTPGVARLIVNNHQTVSNQGVNILGQKTALGALSLQVPTDRALTDTYQATVTWTLNQGVPNR", "values": [{"measurement": "protein production", "result": "failed"}]}
{"sequence": "MYFEIYKDAKGEYRWRLKAANHEIIAQGEGYTSKQNCQHAVDLLKSTTAATPVKEVLEHHHHHH", "values": [{"measurement": "protein production", "result": "not failed"}]}
{"sequence": "MIWQLIDKHRQSFGVEPLCRVLQVSPSAYRRHAARLRDRSRRSARAIRDEELAVQIHRVWQENYEVYGARKVWRQMHREHQVVARCTVERLMREMGLCGVTRGKTVKTTQPDPDNANPRDLVKRQFTAERPNQLWVADFTFVSTWQGFAYVAFIVDVYSRFIVGWRVSRHMRTEFVLDALEQALHTRRPEPHRLVHHSDRGSQYLSIRYSERLGEAGIEPSVGNTGDSYDNALAETINGLYKTELIHKRGPWKSVDSLEWETLKWVTWFNHQRLLEPIGNRPPAEFEALYEQSQATISVAA", "values": [{"measurement": "protein production", "result": "failed"}]}
{"sequence": "MANFKVVVSDPKEARAYQIDIKDAEANALIGKSIGDVVDGSIFGLAGYKVQITGGCDGSGFVMKPDLPGPRRQRILTATGVGYVPKLPGQRRRKMMRGKEIAPDIVQVNAKVVEYGSKSIKALLGLETAEEAPAAELEHHHHHH", "values": [{"measurement": "protein production", "result": "not failed"}]}
